B1: TPR t1 (parent)
chain: GACCAAUCUGCCCUCAGAGCUCGAGAACAUCUUCGGAUGCAGAGGAGGCAGGCUUCGGUGGCGCGAUAGCGCCAACGUCCUCAACCUCCAAUGCAUCCCACCACAUGAUGAUGCCUGAAGAGCCUUGGUUUUUUG

Variants of: B1
Experiment: polymerase ribozyme fitness, log enrichment relative to wild type (log ratio); higher = more active; in vitro selection for triplet polymerase activity
How it was run: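 One round of in vitro selection, in triplicate, was applied to PCR-built, transcribed mutant libraries of each subunit of a heterodimeric triplet polymerase ribozyme. The steps were annealing with a biotinylated primer, partner subunit and triplets, incubation frozen at −7 °C, gel excision of extended constructs, streptavidin-bead capture and RT-PCR. Fitness is the logarithm, base 2, of genotype enrichment over wild-type enrichment from inverse-variance-weighted replicate averages of Illumina-sequenced inputs and outputs, keeping genotypes with ≥10 input reads and ≥1 read per output.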

Row | Variant | polymerase ribozyme fitness (log ratio)
1 | C20A G51A G61C | -6.95
2 | A41U G45A C88A C115A U131A | -3.64
3 | G52U G93U G110U | -3.97
4 | A43C U87C C89A A91U U92G G93C U125G | -4.91
5 | C11U C89A | -2.85
6 | G36A G48A U112A U131C | 0.386
7 | C15A C40A C56G | -6.31
8 | C8A U9G U87A | 0.00649
9 | C11A G47C C72G | -3.64
10 | A41G G45U C56G | -0.725
11 | C20G A46U C114U | -3.16
12 | C11A U67C | -5.83
13 | C22A A83G | -5.4
14 | A83U C85A U112A C114A | -3.32
15 | A26U G42C | -6.73
16 | G113U A119G | -1.66
17 | G17U A24G A26G U112A | -6.66
18 | A2U G47A C123A | -2.56
19 | C28U C40A C123A | -3.16
20 | G52C C72G C104U | -0.739
21 | C76G C82U | -0.815

Row | Variant | polymerase ribozyme fitness (log ratio)
22 | C13U A41C G52U G60C G120A U126G | -1.71
23 | G63U A121C | 0.0306
24 | C94U C99U U125A | -3.61
25 | C4A G10A C53G G60U C70U A74U C123A U131C | -1.36
26 | C20A A37G C49A G63A | -4.85
27 | U14G U38G | -3.56
28 | G10U A26G | -2.71
29 | G17C A37U U54G U112C | -3.41
30 | A6C A26U C62U | -2.91
31 | C49G C62G | -3.46
32 | U54G C104G | -7.42
33 | A5U C49A | -2.06
34 | G107A U125G | -5.84
35 | U7G A74C G93U G113A | -1.35
36 | U21C C28A G63A U92G C124A G127A | -7.31
37 | C73U C76A A103U G120C | -5.45
38 | C64A U112G G122A | -7.31
39 | C79U C99A U112C | -4.18
40 | C13U A46U C56A C85U | -2.14
41 | G36C G128C | -4.43
42 | C8A G48U C53A C82U U106A A108G | -1.56

Row | Variant | polymerase ribozyme fitness (log ratio)
43 | C62A C79A G117C | -6
44 | G44U C114G | -3.66
45 | G45U A66C G93C U96C C115A | -4.28
46 | C15U G58A C85A G113U | -5.84
47 | C11A C64U U78C C80U A83G | -4.97
48 | C79A C89A | -3.43
49 | U38A G60U C62A A74U C115G | -6.4
50 | U131G | -0.452
51 | A5G C49G G127C G128A | -2.99
52 | C28U G45A C70U C124U | -2.79
53 | U9A C56A A66U | -0.548
54 | G77A A83U A84C C86A C101U G117C | -6.46
55 | G71A A91G A121U | -0.169
56 | C13U C88U | 0.907
57 | C8A A43U | -1.01
58 | G52A G122A C124U | 0.227
59 | G39C C53A U54G G120U | 0.139
60 | A6G G39U | -0.397
61 | A43C G117A | -3.01
62 | G60A G93C U132A | -1.25
63 | A16C C72G C82G G120C | -1.82

Row | Variant | polymerase ribozyme fitness (log ratio)
64 | G44A A46U G93U C104U | -2.25
65 | G45A C64G A68C C104A G117U | -6.22
66 | G58A C72G C82A | -0.468
67 | G69C A100U | -1.67
68 | G60U C115U | -0.124
69 | G44C A83U | -0.396
70 | C70A G128A | -3.64
71 | A74U A83U A84C G120U G122A U125A | -1.84
72 | U96G G110U G120U U132C | -4.08
73 | G51U G135U | -4.28
74 | G69U C72U C114A G128A | -3.08
75 | U9A C80U | 0.294
76 | A37G C73A U96A | -3.88
77 | G10U U59C U96G G117A | -4.44
78 | G36C G120C | 0.237
79 | C20U A26G G71U U109A | -5.57
80 | A83C U106C | -0.823
81 | G60U C79U G93A C102A | -2.44
82 | A5G G10A C72A A91U | -1.75
83 | G10C G110C | -6.69
84 | G52A U116C | -0.22

Source: the RNAGym collection of RNA variant scans (doi:10.1073/pnas.2313332121)
